Data set [1] concerns the target MIF (macrophage migration inhibitory factor) (UniProt P14174 P14174:2-115). Nature of the data set: SPR; specificity control. To be noted: tags: His tag; ATGen. (In SPR one partner is held on a chip, and binding of the other changes the refractive index at the surface.)
Data set [2] deals with BSA (bovine serum albumin) (Bos taurus, UniProt P02769 P02769:25-607). Description: SPR; specificity control. To be noted: tags: Nippon Gene.
Data set [3] has as its target HA1Aichi (hemagglutinin HA1) (Influenza A virus A/Aichi/2/1968, UniProt P03437 SEQ:17-345). Nature of the data set: SPR. The note with it: tags: Sino Biological #11707-V08H1.
The target of data set [4] is T1, HA1Aichi (hemagglutinin HA1) (Influenza A virus A/Aichi/2/1968, UniProt P03437 SEQ:17-345). Description: SPR; negative control. To be noted: tags: Sino Biological #11707-V08H1.
Data set [5] has as its target T1, HA1Aichi (hemagglutinin HA1). Description: SPR. The note with it: tags: Sino Biological #11707-V08H1. This is another data set of the same source.

BSA (bovine serum albumin), sequence (P02769 25-607, one chain of several): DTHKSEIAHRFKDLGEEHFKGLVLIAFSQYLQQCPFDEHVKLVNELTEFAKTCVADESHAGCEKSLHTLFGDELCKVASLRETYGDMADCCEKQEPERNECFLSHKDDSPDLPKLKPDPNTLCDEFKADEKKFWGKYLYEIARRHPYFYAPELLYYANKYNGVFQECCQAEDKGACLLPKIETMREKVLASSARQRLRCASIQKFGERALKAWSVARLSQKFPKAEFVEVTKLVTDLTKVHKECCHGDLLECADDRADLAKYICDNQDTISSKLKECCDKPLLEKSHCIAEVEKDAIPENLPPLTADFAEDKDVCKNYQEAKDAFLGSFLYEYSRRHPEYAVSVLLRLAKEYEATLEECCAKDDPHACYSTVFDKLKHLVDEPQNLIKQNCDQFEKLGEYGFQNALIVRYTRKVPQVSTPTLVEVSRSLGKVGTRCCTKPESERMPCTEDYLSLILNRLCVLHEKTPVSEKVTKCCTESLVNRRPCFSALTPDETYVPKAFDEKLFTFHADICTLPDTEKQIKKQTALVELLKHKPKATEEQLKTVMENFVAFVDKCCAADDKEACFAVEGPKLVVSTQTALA
MIF (macrophage migration inhibitory factor), sequence (P14174 2-115, one chain of several): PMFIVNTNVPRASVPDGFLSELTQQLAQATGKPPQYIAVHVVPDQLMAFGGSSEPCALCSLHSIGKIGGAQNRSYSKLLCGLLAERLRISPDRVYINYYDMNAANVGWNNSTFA

Regarding GTGTTTGATGGTTTGGTCTGGTTGGCTTAACAC (ssDNA, 3' poly(dA)24 tail for SPR), the binding result in data set [1] and in data set [2] was “no binding” each time.
For the molecule GTGTTTGATGGTTTGGTCTGGTTGGCTTAACAC (ssDNA), the binding result in data set [3] was “binds”.

B1: RHA0002 (ssDNA)
DNA: GGTTAGCCCGTCCCGAGATAACTCGGGGTGTTTGATGGTTTGGTCTGGTTGGCTTAACACACGGCGGCTGTAG
modifications: 3' poly(dA)24 tail for SPR
For the molecule B1, the binding result in data set [1] and in data set [2] was “no binding” each time.
In the case of TTGGGGTTATTTTGGGAGGGCGGGGGTT (ssDNA) [RHA0385_s28], the binding result in data set [3] is “binds”.
Consider CGGCGTTTGGTTGGCGTGAACCATTTTTAAGTT (ssDNA, 3' poly(dA)24 tail for SPR; 3' biotin for ELAA) [Control], for which, in data set [4], the binding result is “no binding”.

B2: RHA0127 (ssDNA)
DNA: CCTGCACCCAGTGTCCCTGGGTCGGCTAATTTGGCATTTGGGGTGGTTTGGGGGGGGGACGGAGAGGAGGACGG
modifications: 3' poly(dA)24 tail for SPR
For B2, the binding result in data set [1] and in data set [2] was “no binding” each time.

B3: RHA0006 (ssDNA)
DNA: GGTTAGCCCGTCCCGAGATAACTCGGTGTGTTGGGTTTGGGTTGGGTTGGGTCTTAACACACGGCGGCTGTAG
modifications: 3' poly(dA)24 tail for SPR
B3: the binding result in data set [1] and in data set [2] was “no binding” in each case.
Turning to GGGTTTGGGTTGGGTTGGG (ssDNA, 3' poly(dA)24 tail for SPR) [RHA0006_s19], the binding result in data set [1] and in data set [2] was “no binding” in each case.

B4: RHA0006_s19_d5 (ssDNA)
DNA: GGGTTTGGGTTGGGTTGGGTTTTTGGGTTTGGGTTGGGTTGGG
modifications: 3' poly(dA)24 tail for SPR; 3' biotin (detection) or 3' amino (capture) for ELAA
For the molecule B4, the binding result in data set [5] is “binds”.

B5: RHA0471_s51 (ssDNA)
DNA: TCCTCGTTGGGGGTGGTGGTGGGTTTCGGTTCATGGGTGGGACGGAGAGGA
In the case of B5, in data set [3], the binding result is given as “binds”.

B6: RHA1634_s60 (ssDNA)
DNA: GGGCACCCTCTCGCTGTACGGTTGATGCACGTTTCTTTCTCTTTATATTGCTGGGTGCCC
Regarding B6, the binding result in data set [3] is on record as “binds”.

B7: RHA1635_s62 (ssDNA)
DNA: GGGGCCCACCCTCTCGCTGGCGGCTCTGTTCTGTTCTCGTCTCCTTGATTTCTGTGGGCCCC
B7: in data set [3], the binding result is recorded as “binds”.

B8: RHA0111 (ssDNA)
DNA: CCTGCACCCAGTGTCCCGTGCTCCGGGGGTTGGGCGTGGTGGGTCTGTCGGGTTTCGGACGGAGAGGAGGACGG
modifications: 3' poly(dA)24 tail for SPR
In the case of B8, the binding result in data set [1] and in data set [2] was “no binding” throughout.

These data come from patent US20150167106 (NEC Solution Innovators, Ltd., published 2015).
